From US20250243277A1 (AVACTA LIFE SCIENCES, published 2025)

B1: Clone 243 (designed binder)
chain: MIPGGLSEAKPATPEIQEIVDKVKPQLEEKTGETYGKLEAVQYKTQVVWKQITLPVDGTNYYIKVRAGDNKYMHLKVFKSLHWDEYEYDEEDLVLTGYQVDKNKDDELTGF
notes: His-tagged
B2: Clone 239 (designed binder)
chain: MIPGGLSEAKPATPEIQEIVDKVKPQLEEKTGETYGKLEAVQYKTQVVLTIPPTAFSGTNYYIKVRAGDNKYMHLKVFKSLGWNLHEVALEDLVLTGYQVDKNKDDELTGF
notes: His-tagged
B3: Clone 241 (designed binder)
chain: MIPGGLSEAKPATPEIQEIVDKVKPQLEEKTGETYGKLEAVQYKTQVVSRLHFPNFQGTNYYIKVRAGDNKYMHLKVFKSLNLEHPTDETEDLVLTGYQVDKNKDDELTGF
notes: His-tagged
B4: Clone 221 (designed binder)
chain: MIPGGLSEAKPATPEIQEIVDKVKPQLEEKTGETYGKLEAVQYKTQVVIQDVDWRLWGTNYYIKVRAGDNKYMHLKVFKSLVPSDWSKTIEDLVLTGYQVDKNKDDELTGF
notes: His-tagged
B5: Clone 251 (designed binder)
chain: MIPGGLSEAKPATPEIQEIVDKVKPQLEEKTGETYGKLEAVQYKTQVVATDQDWRKWGTNYYIKVRAGDNKYMHLKVFKSLIPLNWQLQEEDLVLTGYQVDKNKDDELTGF
notes: His-tagged
B6: Clone 23 (designed binder)
chain: MIPGGLSEAKPATPEIQEIVDKVKPQLEEKTGETYGKLEAVQYKTQVVYWEHHHYGFGTNYYIKVRAGDNKYMHLKVFKSLAWPEIDPPVEDLVLTGYQVDKNKDDELTGF
notes: His-tagged
B7: Clone 82 (designed binder)
chain: MIPGGLSEAKPATPEIQEIVDKVKPQLEEKTGETYGKLEAVQYKTQVVFWQLHRYGFGTNYYIKVRAGDNKYMHLKVFKSLEWNRLSPLWEDLVLTGYQVDKNKDDELTGF
notes: His-tagged
B8: Clone 227 (designed binder)
chain: MIPGGLSEAKPATPEIQEIVDKVKPQLEEKTGETYGKLEAVQYKTQVVYVRWHEYGFGTNYYIKVRAGDNKYMHLKVFKSLSNQLIPQPIEDLVLTGYQVDKNKDDELTGF
notes: His-tagged
B9: Clone 220 (designed binder)
chain: MIPGGLSEAKPATPEIQEIVDKVKPQLEEKTGETYGKLEAVQYKTQVVNRWNIREFEGTNYYIKVRAGDNKYMHLKVFKSLINVPVTELLEDLVLTGYQVDKNKDDELTGF
notes: His-tagged
B10: Clone 237 (designed binder)
chain: MIPGGLSEAKPATPEIQEIVDKVKPQLEEKTGETYGKLEAVQYKTQVVVAGLKWHWEGTNYYIKVRAGDNKYMHLKVFKSLIYASQYDYREDLVLTGYQVDKNKDDELTGF
notes: His-tagged
B11: Clone 226 (designed binder)
chain: MIPGGLSEAKPATPEIQEIVDKVKPQLEEKTGETYGKLEAVQYKTQVVYKHDDEYGFGTNYYIKVRAGDNKYMHLKVFKSLKWTNRANKPEDLVLTGYQVDKNKDDELTGF
notes: His-tagged
B12: Clone 22 (designed binder)
chain: MIPGGLSEAKPATPEIQEIVDKVKPQLEEKTGETYGKLEAVQYKTQVVHRLHFPIYYGTNYYIKVRAGDNKYMHLKVFKSLHFTLPTQHPEDLVLTGYQVDKNKDDELTGF
notes: His-tagged
B13: Clone 235 (designed binder)
chain: MIPGGLSEAKPATPEIQEIVDKVKPQLEEKTGETYGKLEAVQYKTQVVWNPPSLPISGTNYYIKVRAGDNKYMHLKVFKSLAWDNTAKHGEDLVLTGYQVDKNKDDELTGF
notes: His-tagged
B14: Clone 229 (designed binder)
chain: MIPGGLSEAKPATPEIQEIVDKVKPQLEEKTGETYGKLEAVQYKTQVVHSSSKPYIHGTNYYIKVRAGDNKYMHLKVFKSLNWNRPYNDLEDLVLTGYQVDKNKDDELTGF
notes: His-tagged
B15: Clone 234 (designed binder)
chain: MIPGGLSEAKPATPEIQEIVDKVKPQLEEKTGETYGKLEAVQYKTQVVRNSGVWEFEGTNYYIKVRAGDNKYMHLKVFKSLGKYKTNWYFEDLVLTGYQVDKNKDDELTGF
notes: His-tagged
B16: Clone 242 (designed binder)
chain: MIPGGLSEAKPATPEIQEIVDKVKPQLEEKTGETYGKLEAVQYKTQVVVEWSESGYDGTNYYIKVRAGDNKYMHLKVFKSLRLKSNVNIAEDLVLTGYQVDKNKDDELTGF
notes: His-tagged
B17: Clone 228 (designed binder)
chain: MIPGGLSEAKPATPEIQEIVDKVKPQLEEKTGETYGKLEAVQYKTQVVVWTSDDAWQGTNYYIKVRAGDNKYMHLKVFKSLFKFEIYKHTEDLVLTGYQVDKNKDDELTGF
notes: His-tagged
B18: Clone 222 (designed binder)
chain: MIPGGLSEAEPATPEIQEIVDKVKPQLEEKTGETYGKLEAVQYKTQVVQRDHFPEFPGTNYYIKVRAGDNKYMHLKVFKSLGHELYALYAEDLVLTGYQVDKNKDDELTGF
notes: His-tagged
B19: Clone 218 (designed binder)
chain: MIPGGLSEAKPATPEIQEIVDKVKPQLEEKTGETYGKLEAVQYKTQVVWRVYFPDFKGTNYYIKVRAGDNKYMHLKVFKSLDEVDEIPHFEDLVLTGYQVDKNKDDELTGF
notes: His-tagged
B20: Clone 230 (designed binder)
chain: MIPGGLSEAKPATPEIQEIVDKVKPQLEEKTGETYGKLEAVQYKTQVVHVSNFIIPHGTNYYIKVRAGDNKYMHLKVFKSLNWEGNDLATEDLVLTGYQVDKNKDDELTGF
notes: His-tagged
B21: Clone 216 (designed binder)
chain: MIPGGLSEAKPATPEIQEIVDKVKPQLEEKTGETYGKLEAVQYKTQVVFTEVKPFVEGTNYYIKVRAGDNKYMHLKVFKSLSWNAPFPAGEDLVLTGYQVDKNKDDELTGF
notes: His-tagged
B22: Clone 238 (designed binder)
chain: MIPGGLSEAKPATPEIQEIVDKVKPQLEEKTGETYGKLEAVQYKTQVVRHKGLWQFEGTNYYIKVRAGDNKYMHLKVFKSLSHQPYRATIEDLVLTGYQVDKNKDDELTGF
notes: His-tagged
B23: Clone 244 (designed binder)
chain: MIPGGLSEAKPATPEIQEIVDKVKPQLEEKTGETYGKLEAVQYKTQVVWDSEALPIDGTNYYIKVRAGDNKYMHLKVFKSLRWWPWDAVGEDLVLTGYQVDKNKDDELTGF
notes: His-tagged
B24: Clone 231 (designed binder)
chain: MIPGGLSEAKPATPEIQEIVDKVKPQLEEKTGETYGKLEAVQYKTQVVARWHWFHHFGTNYYIKVRAGDNKYMHLKVFKSLNPINGQETWEDLVLTGYQVDKNKDDELTGF
notes: His-tagged
B25: Clone 232 (designed binder)
chain: MIPGGLSEAKPATPEIQEIVDKVKPQLEEKTGETYGKLEAVQYKTQVVTKHSATFFHGTNYYIKVRAGDNKYMHLKVFKSLIGNGQYWYREDLVLTGYQVDKNKDDELTGF
notes: His-tagged

Biological target: T1, human PD-L1-Fc (R&D Systems) (human, UniProt Q9NZQ7 19-239)
T1 construct: Bought from R&D Systems; Biotinylated in-house for the phage selection; also called huPD-L1-Fc; human PD-L1-Fc antigen; not shown: Fc part of the bought fusion
T1 sequence (Q9NZQ7 19-239 limits assumed): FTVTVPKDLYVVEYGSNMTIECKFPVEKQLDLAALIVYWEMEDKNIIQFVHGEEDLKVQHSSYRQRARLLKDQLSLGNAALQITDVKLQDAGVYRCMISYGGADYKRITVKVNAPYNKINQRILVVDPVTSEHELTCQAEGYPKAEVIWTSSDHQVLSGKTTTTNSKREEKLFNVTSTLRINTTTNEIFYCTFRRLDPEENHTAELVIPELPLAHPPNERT
Assay: soluble Affimer ELISA

Binding result, binds:
B1
B2
B3
B4
B5
B6
B7
B8
B9
B10
B11
B12
B13
B14
B15
B16
B17
B18
B19
B20
B21
B22
B23
B24
B25
